± gives the uncertainty stated by the source.
Assay: protein stability index of a GFP-peptide fusion (yeast GPS) (PSI 1-4); higher = more stable; sorted into four equal gates, so the index is relative within each strain
Method in brief: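 Plasmids in a pooled yeast library fused tiled 17-residue yeast protein peptides downstream of GFP and also expressed Cherry. Mid-log cultures grown without leucine were sorted into four equal gates by GFP/Cherry fluorescence ratio. Each gate's plasmids were PCR-amplified and Illumina-sequenced, and reads were matched to strains by barcodes. The protein stability index is derived by multiplying each gate's read frequency by its gate number and summing the results.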

Sequence	protein stability index (pdr5∆)	protein stability index (san1∆)	protein stability index (ubr1∆)	protein stability index (doa10∆)
FQVHERLAPLIKEENDM [ARP7]	3.58 ± 0.17	2.97 ± 0.15	3.22 ± 0.28	
KEIRAFDKLLNIPRREL [SRB4]	2.46 ± 0.07	2.73 ± 0.08	1.95 ± 0.071	2.6 ± 0.08
NRRLFKKCIDFFEMLIS [RRI2]	2.05 ± 0.045	2.12 ± 0.058	2.02 ± 0.03	2.2 ± 0.037
SLLLSSVKESTGMSSMS [SRB4]	2.21 ± 0.078	1.57 ± 0.21	1.22 ± 0.13	1.96 ± 0.081
VVTSSVAESFTDEADSS [SNF2]	2.98 ± 0.1	3.15 ± 0.075	3.01 ± 0.084	3.03 ± 0.095
LGAIEQILIFAADTSIV [YJL039C/NUP192]	2.02 ± 0.049	1.72 ± 0.091	2.56 ± 0.099	1.47 ± 0.09
DVFTINPHQKDQLIISS [YML103C/NUP188]	2.19 ± 0.19	1.62 ± 0.24	2.74 ± 0.24	1.56 ± 0.18
EKLLQQDREITNWARTT [MED8]	1.77 ± 0.087	2.48 ± 0.089	2.06 ± 0.11	2.37 ± 0.09
ESENFKIIALQPNEISF [RGR1]	2.55 ± 0.11	2.54 ± 0.084	2.49 ± 0.075	2.39 ± 0.091
SFIFQYYGLVIDLLLLG [PRP8]	1.2 ± 0.054	1.15 ± 0.16	1.24 ± 0.05	1.48 ± 0.12
VSNRVAAPARAGAVAPE [RPP0]	2.54 ± 0.097	2.64 ± 0.11	2.56 ± 0.17	2.06 ± 0.11
RHFGMGPHKGKAPRILS [RPL18A]	2.52 ± 0.079	3.09 ± 0.13	2.73 ± 0.1	2.57 ± 0.14
HDVLQKLNTLSEILSFD [YML103C/NUP188]	3.2 ± 0.067	3.03 ± 0.051	3.14 ± 0.041	2.99 ± 0.068
SELPDIYSRDIGAELKR [SNF2]	3.26 ± 0.13	3.38 ± 0.08	3.41 ± 0.18	
LQEIYQTDAIKSDEAKW [RPN5]	2.5 ± 0.13	2.13 ± 0.13	2.16 ± 0.17	2.34 ± 0.09
RVVYLKHLEDNTLLVTG [RPL6B]	1.12 ± 0.095	1.15 ± 0.2	1.16 ± 0.2	1.89 ± 0.29
SRLKALNLQFKAKVDDL [YLR335W/NUP2]	3.2 ± 0.091	3.05 ± 0.1	3.11 ± 0.069	3.12 ± 0.075
DYVASLNELYQTQQDLP [NSL1]	3.19 ± 0.052	3.12 ± 0.058	3.06 ± 0.039	3 ± 0.056
RNSKTVREFLEKNYDRK [PRE6]				3.08 ± 0.27
KDFLKAVDKVISGYKKF [RPT1]	3.38 ± 0.09	3.12 ± 0.092	3.33 ± 0.051	3.21 ± 0.074
NNSSSGMNNASAGLFGS [YGL172W/NUP49]	3.08 ± 0.051	3.29 ± 0.036	3.35 ± 0.068	3.18 ± 0.084
PFKRKMLLVDIIPSRMG [REC8]	1.77 ± 0.072	2.26 ± 0.11	2.15 ± 0.059	1.81 ± 0.069
LGKRINSAVNNAISNTQ [SRP54]	3.19 ± 0.12	2.91 ± 0.096	3.12 ± 0.097	2.46 ± 0.099
ILCIFEGEKCHPQDFGN [SEC65]	2.39 ± 0.066	2.14 ± 0.087	2.44 ± 0.053	2.13 ± 0.059
RERQVNEKLADLGLEKE [RPC53]	3.4 ± 0.16	3.06 ± 0.18	3.2 ± 0.24	3.2 ± 0.14
QLHFSLLDEEAEQSFDQ [RPO21]	2.77 ± 0.14	3.29 ± 0.1	2.64 ± 0.22	2.51 ± 0.11
EPEEEKSKREEEAKSVL [ARP9]	3.53 ± 0.29		3.25 ± 0.17	3.15 ± 0.27

Sequence	protein stability index (pdr5∆)	protein stability index (san1∆)	protein stability index (ubr1∆)	protein stability index (doa10∆)
QIMQNPTHYKIPAWFLN [RPS18A]	1.99 ± 0.071	1.66 ± 0.084	1.6 ± 0.048	2.02 ± 0.072
VNNGNIPSQRGTSTTHG [SIR3]	2.85 ± 0.088	2.78 ± 0.094	2.73 ± 0.072	2.37 ± 0.16
LILRDFLNNGEVDSASD [RPN3]	2.89 ± 0.17	2.63 ± 0.23	3.2 ± 0.29	3.07 ± 0.19
QGKHTKFENDELAESTT [LRP1]	2.88 ± 0.12	3.12 ± 0.079	3.21 ± 0.077	3.75 ± 0.23
LSEFGIKKMLHLVWMKG [YCS4]	3.47 ± 0.11	2.31 ± 0.15	3.29 ± 0.17	3.17 ± 0.17
LDGELDFDDFLKLGLVE [RET1]	3.08 ± 0.12	2.81 ± 0.13	2.56 ± 0.17	3.36 ± 0.16
EFIQDSAARGLSLVYEI [ECM29]			3.64 ± 0.12	
QNVNVPSAFNFTGNNST [YOR098C/NUP1]	2.89 ± 0.06	2.77 ± 0.037	2.84 ± 0.053	2.56 ± 0.049
GSENKRGSLDSEHVFDY [NUT1]	3.29 ± 0.11	3.32 ± 0.2	3.57 ± 0.05	3.37 ± 0.14
HKVSSQSTNLNRSAKNS [YCS4]	2.41 ± 0.05	2.38 ± 0.079	2.32 ± 0.05	2.24 ± 0.054
AGLDEDGKGAVYSFDPV [PRE7]	3 ± 0.2		2.87 ± 0.15	2.58 ± 0.29
DKYHPGYFGKVGMRYFH [RPL28]	2.99 ± 0.072	2.99 ± 0.083	2.96 ± 0.044	3.23 ± 0.062
SNIQRNVLFLRLFNNVK [SRP72]	2.23 ± 0.054	1.49 ± 0.076	1.83 ± 0.05	2.24 ± 0.059
YKEQIIQGFYWAVKEGP [SNU114]	2.38 ± 0.064	2.23 ± 0.09	2.38 ± 0.08	2.75 ± 0.088
TFIYFAYFLIIVPVIST [COB]	1.3 ± 0.046	1.16 ± 0.087	1.1 ± 0.027	1.68 ± 0.05
PAKVAEEGINKFKKEKF [SRP54]	3.44 ± 0.059	3.38 ± 0.046	3.23 ± 0.057	3.2 ± 0.066
AGANDTSNNETNNGNDD [GRR1]	2.23 ± 0.066	2.87 ± 0.072	2.89 ± 0.059	2.8 ± 0.048
ELRRPGVDNLRRMGILK [RPO31]	2.98 ± 0.067	2.85 ± 0.06	3.08 ± 0.039	3.17 ± 0.079
NSSVGNKTDAQAPTTGF [YJL041W/NSP1]	3.15 ± 0.056	3.19 ± 0.058	2.96 ± 0.094	3 ± 0.072
DLKESMVKGLLKSFTES [ECM29]	3 ± 0.19	2.8 ± 0.1	3.34 ± 0.096	3.34 ± 0.26
SSHAKGIVLEKLGIESK [RPS23A]	2.88 ± 0.13	2.67 ± 0.095	3.17 ± 0.17	3.02 ± 0.15
VLKFAAHTGATPIAGRF [RPS0A]	2.85 ± 0.11	2.81 ± 0.13	2.1 ± 0.12	2.23 ± 0.21
RGYFITQEEVELPLEDF [RPB5]	3.01 ± 0.16	3.28 ± 0.15	3.14 ± 0.086	3.46 ± 0.19
DEDKNFPRSRSRSRSSI [ESC2]	3.25 ± 0.14	3.12 ± 0.14	3.27 ± 0.07	3.13 ± 0.15
GGRYVYPVHEAHKGQIV [SNU114]	2.97 ± 0.11	3.01 ± 0.054	2.89 ± 0.063	1.58 ± 0.12
EEKPDVTYSDVGGCKDQ [RPT1]	3.65 ± 0.19	3.04 ± 0.23	3.41 ± 0.11	3.48 ± 0.16
NFYRPLLRSVLVLLELV [YML103C/NUP188]	1.21 ± 0.087	1.18 ± 0.12	1.06 ± 0.074	1.23 ± 0.066

Sequence	protein stability index (pdr5∆)	protein stability index (san1∆)	protein stability index (ubr1∆)	protein stability index (doa10∆)
GDTVRILDTSQSESRQK [SNU114]	2.96 ± 0.054	2.77 ± 0.05	2.9 ± 0.04	2.81 ± 0.051
KTYKEGINKNEEYRKQL [SMC1]	2.2 ± 0.084	2.31 ± 0.077	2.19 ± 0.056	3.23 ± 0.16
IDNGAESSENEAEDDDN [RPC53]	3.62 ± 0.17	3.15 ± 0.11	2.81 ± 0.16	3.33 ± 0.14
KAAFLGSEVRLRDDTLP [COR1]	2.98 ± 0.057	2.93 ± 0.061	2.68 ± 0.05	2.54 ± 0.06
GLFGNKPNNTANTGGGL [YGL172W/NUP49]	3.65 ± 0.13	3.49 ± 0.062	3.56 ± 0.11	3.66 ± 0.17
VEEDHTLGNALRYVIMK [RPC19]	2.75 ± 0.071	2.54 ± 0.085	2.73 ± 0.063	3.08 ± 0.11
GVEQLHYTGISQSACRE [SSN3]	2.38 ± 0.085	2.66 ± 0.13	2.56 ± 0.099	2.69 ± 0.089
SGNNSKKRKNKSSGSSM [ROX3]	2.94 ± 0.075	2.91 ± 0.12	3.17 ± 0.068	2.65 ± 0.14
QRKKQSDVLRFLQRVRV [RPL15A]	2.26 ± 0.21	1.78 ± 0.26	1.56 ± 0.099	1.38 ± 0.16
KPTSHKQLQQPKSSPLK [SIR4]	3 ± 0.058	3.04 ± 0.039	2.95 ± 0.032	2.87 ± 0.057
YSLHQIRKDPNNLSNQL [CSE2]	2.66 ± 0.071	2.65 ± 0.054	2.77 ± 0.04	2.54 ± 0.076
GKLVVSQEMVPRYFSEA [SIR3]	3.43 ± 0.17	3.38 ± 0.079	3.21 ± 0.12	3.31 ± 0.086
SHLWEIDIPLDEQAFYN [RPC37]	2.45 ± 0.27	2.98 ± 0.24		
MSNKVKTKAMVPPINCI [SME1]	2.35 ± 0.053	2.64 ± 0.05	2.57 ± 0.035	2.42 ± 0.057
AVNSIMALKFVSIKFTN [ECM29]	3.12 ± 0.11	2.87 ± 0.13	3.13 ± 0.22	
SIGEPATQMTLNTFHFA [RPO21]	3.04 ± 0.11	3.04 ± 0.15	2.75 ± 0.12	2.63 ± 0.091
HQNESSAASIPPQQTYH [RPN4]	2.89 ± 0.074	2.53 ± 0.066	2.69 ± 0.057	2.57 ± 0.054
SPRFNVKIGDIEKWTAN [RPS22A]	3.23 ± 0.075	2.85 ± 0.065	3.34 ± 0.073	3.06 ± 0.082
SSSNGGGSAKPSLKFKP [RPC53]	3 ± 0.14	2.74 ± 0.093	3.34 ± 0.091	2.61 ± 0.13
GRSHTRNSTRSSGFNED [REC8]	3.55 ± 0.23			
RTPDSISVNSSSFSLTF [POP1]	2.62 ± 0.042	2.44 ± 0.045	2.37 ± 0.038	2.56 ± 0.045
QPVNPKPFLKGLVNHRV [SMX3]	3.09 ± 0.057	3.16 ± 0.041	3.06 ± 0.055	3.07 ± 0.054
QPQQSTIGGGLFGNKPT [YGR119C/NUP57]	2.73 ± 0.15	3.55 ± 0.15	1.38 ± 0.19	2.75 ± 0.087
YKPLIEERMGQIENLNE [SMC4]	3.34 ± 0.098	3.46 ± 0.071	3.28 ± 0.068	3.2 ± 0.23
HLVMRAISLGLLKGSID [RPN9]	2.55 ± 0.14	1.58 ± 0.18	1.79 ± 0.16	2.04 ± 0.095
